Paper PMC4070425

Tests used:
[1] = biological target: LAI Env N637A (variant virus) (HIV-1 strain LAI)
[2] = biological target: JR-CSF Env E647G (variant pseudovirus) (HIV-1 isolate JR-CSF)
[3] = biological target: LAI Env E647A (variant virus) (HIV-1 strain LAI)
[4] = biological target: JR-CSF Env E647A (variant pseudovirus) (HIV-1 isolate JR-CSF)
[5] = biological target: JR-CSF Env N637K (variant pseudovirus) (HIV-1 isolate JR-CSF)
[6] = biological target: LAI Env N637K (variant virus) (HIV-1 strain LAI)
[7] = biological target: JR-CSF Env N611D (variant pseudovirus) (HIV-1 isolate JR-CSF)
[8] = biological target: JR-FL Env N611A (variant pseudovirus) (HIV-1 isolate JR-FL)
[9] = biological target: LAI Env wild type (virus) (HIV-1 strain LAI) (UniProt P03377)
[10] = biological target: JR-FL Env N637K (variant pseudovirus) (HIV-1 isolate JR-FL)
[11] = biological target: JR-CSF Env S613A (variant pseudovirus) (HIV-1 isolate JR-CSF)
[12] = biological target: LAI Env N611D (variant virus) (HIV-1 strain LAI)
[13] = biological target: JR-FL Env E647A (variant pseudovirus) (HIV-1 isolate JR-FL)
[14] = biological target: JR-CSF Env N611A (variant pseudovirus) (HIV-1 isolate JR-CSF)
[15] = biological target: JR-CSF Env wild type (pseudovirus) (HIV-1 isolate JR-CSF) (UniProt P20871)
[16] = biological target: JR-FL Env E647G (variant pseudovirus) (HIV-1 isolate JR-FL)
[17] = biological target: JR-FL Env N637A (variant pseudovirus) (HIV-1 isolate JR-FL)
[18] = biological target: JR-FL Env N611D (variant pseudovirus) (HIV-1 isolate JR-FL)
[19] = biological target: JR-CSF Env T639A (variant pseudovirus) (HIV-1 isolate JR-CSF)
[20] = biological target: LAI Env E647G (variant virus) (HIV-1 strain LAI)
[21] = biological target: JR-CSF Env N637A (variant pseudovirus) (HIV-1 isolate JR-CSF)
[22] = biological target: LAI Env A501T (variant virus) (HIV-1 strain LAI)
[23] = biological target: LAI Env N611A (variant virus) (HIV-1 strain LAI)

Chain of UniProt P20871 (P20871 32-848): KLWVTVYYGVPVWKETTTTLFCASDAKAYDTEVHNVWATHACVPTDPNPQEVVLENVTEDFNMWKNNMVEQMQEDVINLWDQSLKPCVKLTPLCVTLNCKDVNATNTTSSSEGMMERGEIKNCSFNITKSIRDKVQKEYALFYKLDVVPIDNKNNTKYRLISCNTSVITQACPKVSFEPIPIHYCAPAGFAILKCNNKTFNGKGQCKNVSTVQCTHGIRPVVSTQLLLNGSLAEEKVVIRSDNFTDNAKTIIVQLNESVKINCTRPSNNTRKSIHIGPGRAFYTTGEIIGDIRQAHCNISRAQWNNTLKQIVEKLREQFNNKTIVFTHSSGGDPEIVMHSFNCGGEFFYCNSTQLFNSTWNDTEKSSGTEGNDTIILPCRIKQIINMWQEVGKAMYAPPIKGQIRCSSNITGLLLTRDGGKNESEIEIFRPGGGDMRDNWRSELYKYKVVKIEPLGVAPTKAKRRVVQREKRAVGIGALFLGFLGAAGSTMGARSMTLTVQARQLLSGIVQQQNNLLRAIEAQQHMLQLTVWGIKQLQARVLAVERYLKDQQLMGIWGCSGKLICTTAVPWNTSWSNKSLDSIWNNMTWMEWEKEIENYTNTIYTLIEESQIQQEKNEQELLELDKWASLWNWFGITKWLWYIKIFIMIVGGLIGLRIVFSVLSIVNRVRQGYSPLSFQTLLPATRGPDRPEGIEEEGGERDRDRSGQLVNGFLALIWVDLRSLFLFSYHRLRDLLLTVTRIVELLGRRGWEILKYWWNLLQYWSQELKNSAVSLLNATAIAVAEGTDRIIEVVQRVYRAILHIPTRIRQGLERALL

Substance: PGT151 (antibody)
- %Maximum neutralization (LAI) [1]: 70%
- %Maximum neutralization (JR-CSF) [2]: 7%
- %Maximum neutralization (LAI) [3]: 96%
- %Maximum neutralization (JR-CSF) [4]: 33%
- %Maximum neutralization (JR-CSF) [5]: 20%
- %Maximum neutralization (LAI) [6]: 37%
- %Maximum neutralization (JR-CSF) [7]: 0%
- %Maximum neutralization (JR-FL) [8]: 31%
- %Maximum neutralization (LAI) [9]: 100%
- %Maximum neutralization (JR-FL) [10]: 33%
- %Maximum neutralization (JR-CSF) [11]: 41%
- %Maximum neutralization (LAI) [12]: 45%
- %Maximum neutralization (JR-FL) [13]: 72%
- %Maximum neutralization (JR-CSF) [14]: 44%
- %Maximum neutralization (JR-CSF) [15]: 93%
- %Maximum neutralization (JR-FL) [16]: 94%
- %Maximum neutralization (JR-FL) [17]: 65%
- %Maximum neutralization (JR-FL) [18]: 8%
- %Maximum neutralization (JR-CSF) [19]: 52%
- %Maximum neutralization (LAI) [20]: 95%
- %Maximum neutralization (JR-CSF) [21]: 50%
- %Maximum neutralization (LAI) [22]: 75%
- %Maximum neutralization (LAI) [23]: 81%
